Assay results as given in paper doi:10.1101/2021.08.05.455185 (bioRxiv, 2021).
Where two headings read alike, the source gives them in different places.

What was measured:
SEC [1] = biological target: the molecule itself; test: SEC
SEC [2] = biological target: the molecule itself; test: SEC; remark: listed apart in the source

B1: Mycobacterium smegmatis guanosine 5'-monophosphate reductase (Msm GMPR), product of the guaB1 gene (enzyme, UniProt A0QYE8 1-478, looked up)
chain: MRFLDGHTPAYDLTYNDVFVVPGRSDVASRFDVDLSTVDGSGTTIPVVVANMTAVAGRRMAETVARRGGIVVLPQDLPITAVSETVDFVKSRDLVVDTPVTLSPEDSVSDANALLHKRAHGAAVVVFEGRPIGLVTEANCAGVDRFARVRDIALSDFVTAPVGTDPREVFDLLEHAPIDVAVMTAPDGTLAGVLTRTGAIRAGIYTPAVDAKGRLRIAAAVGINGDVGAKAQALAEAGADLLVIDTAHGHQAKMLDAIKAVASLDLGLPLVAGNVVSAEGTRDLIEAGASIVKVGVGPGAMCTTRMMTGVGRPQFSAVVECAAAARQLGGHVWADGGVRHPRDVALALAAGASNVMIGSWFAGTYESPGDLLFDRDDRPYKESYGMASKRAVAARTAGDSSFDRARKGLFEEGISTSRMSLDPARGGVEDLLDHITSGVRSTCTYVGAANLPELHEKVVLGVQSAAGFAEGHPLPAGW
- stoichiometry N (SEC [1]): 4
- stoichiometry N (SEC [2]): 8
